Laboratory results reported in patent publication US20070098706A1 (University of Texas, published 2007).
Blank lines part the entries; values can stand above or below the binder they belong to.

B1: GST-(SH3)+ (other)
chain: RGLQLQCRGAGGRPVLYQVVAQHSYSAQGPEDLGFRQGDTVDVLCEEPDVPLAVDQAWLEGHCDGRIGIFPKCFVVPAGPRMSGAPGRLPRSQQGDQP
notes: Cloned at the EcoRI site of pGEX-3X in frame with GST; the linker is not described; also called fusion protein of GST and the C-terminal NOXA1(SH3+) polypeptide; not shown: glutathione-S-transferase (GST) encoded by vector pGEX-3X
B2: human p47^phox (other, UniProt P14598 1-390, looked up)
chain: MGDTFIRHIALLGFEKRFVPSQHYVYMFLVKWQDLSEKVVYRRFTEIYEFHKTLKEMFPIEAGAINPENRIIPHLPAPKWFDGQRAAENRQGTLTEYCSTLMSLPTKISRCPHLLDFFKVRPDDLKLPTDNQTKKPETYLMPKDGKSTATDITGPIILQTYRAIANYEKTSGSEMALSTGDVVEVVEKSESGWWFCQMKAKRGWIPASFLEPLDSPDETEDPEPNYAGEPYVAIKAYTAVEGDEVSLLEGEAVEVIHKLLDGWWVIRKDDVTGYFPSMYLQKSGQDVSQAQRQIKRGAPPRRSSIRNAHSIHQRSRKRLSQDAYRRNSVRFLQQRRRQARPGPQSPGSPLEEERQTQRSKPQPAVPPRPSADLILNRCSESTKRKLASAV
modifications: labeled in vitro with [35S]-methionine/[35S]-cysteine
notes: no residue limits are printed

What was measured:
[1] = biological target: B2; experiment: GST pull-down of 35S-labelled p47phox with isolated SH3-containing polypeptides
Experimental: (§1) Binding interactions are carried out between GST, GST-NOXA1, GST-NOXA1_{SH3+)}, GST-(SH3wt) and GST-(SH3+) fusion proteins immobilized on GSH-Sepharose, and the in vitro synthesized [³⁵S]-labeled target proteins. Volumes of fusion protein bacterial lysates, previously determined to give equal loading of the GSH-Sepharose, are mixed for 5 min at room temperature with 250 μl of a 50% suspension of washed GSH-Sepharose in PBS (137 mM NaCl, 2.68 mM KCl, […] Na2HPO4, pH 7.3). The suspension is washed twice and resuspended to 500 μl in PBS with 10 mM DTT. Human NOX1, NOX2, p47^phox and MBP-NOXO1₍₂₈₈₋₃₇₀₎ are synthesized and labeled in vitro with [³⁵S]-methlionine/[³⁵S]-cysteine (Redivue Pro-mix L-[³⁵S] labeling mix, Amersham Biosciences, Inc. # AGQ0080) using the TNT® Coupled Reticulocyte Lysate System (Promega) and T7 RNA polymerase. A 24 μl aliquot of the labeling reaction is mixed with 476 μl of the resuspended immobilized GST fusion protein for 15 min at room temperature. The gel pellet is washed 4X with 500 μl of PBS/10 mM DTT/0.05% Triton X-100. […] The entire volume of the denatured samples is separated on 9% SDS-PAGE and analyzed by fluorography. A sample of the original binding gel is analyzed by denaturing SDS-PAGE and Coomassie staining to confirnm the loading of the GST proteins. […]

[2] = biological target: T1, GST-NOXA1(SH3+) (human, UniProt Q86UR1 1-476); experiment: GST pull-down of 35S-labelled p47phox, SDS-PAGE and fluorography
T1 construct: the vector-encoded linker is not described; Immobilised on GSH-Sepharose; not shown: glutathione-S-transferase (GST) encoded by vector pGEX-3X
T1 sequence: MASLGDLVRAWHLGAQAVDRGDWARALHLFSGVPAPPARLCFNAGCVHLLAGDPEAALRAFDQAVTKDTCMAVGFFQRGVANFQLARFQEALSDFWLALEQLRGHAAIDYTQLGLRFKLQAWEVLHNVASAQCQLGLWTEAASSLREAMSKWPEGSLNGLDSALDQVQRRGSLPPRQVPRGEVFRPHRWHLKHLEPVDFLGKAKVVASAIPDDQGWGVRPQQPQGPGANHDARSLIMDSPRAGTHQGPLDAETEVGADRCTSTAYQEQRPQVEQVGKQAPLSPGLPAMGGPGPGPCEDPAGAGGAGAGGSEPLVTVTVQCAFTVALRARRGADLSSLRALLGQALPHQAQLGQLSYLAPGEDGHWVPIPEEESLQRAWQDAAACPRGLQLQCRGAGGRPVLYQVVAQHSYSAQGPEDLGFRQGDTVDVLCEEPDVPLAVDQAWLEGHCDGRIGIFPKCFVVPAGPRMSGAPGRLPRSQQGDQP
Experimental: as §1

[3] = biological target: T1, GST-NOXA1(SH3+); experiment: GST pull-down of 35S-labelled MBP-NOXO1(288-370), SDS-PAGE and fluorography
Experimental: as §1

[4] = biological target: B1; experiment: GST pull-down of 35S-labelled MBP-NOXO1(288-370) with isolated SH3-containing polypeptides
Experimental: as §1

Binder: B1
binding result [1]: no binding

Binder: B2
binding result [2]: no binding

binding result [3]: no binding | binding result [4]: no binding
B3: MBP-NOXO1(288-370) (other, human, UniProt Q8NFA2 294-376, looked up, not shown: large carriers)
chain: EGLGALLSGTGFRGGDDPAGEARGFPEPSQATAPPPTVPTRPSPGAIQSRCCTVTRRALERRPRRQGRPRGCVDSVPHPTTEQ
modifications: labeled in vitro with [35S]-methionine/[35S]-cysteine
notes: range 294-376; Cloned at the SacI/XhoI sites of pET23bMBPH6 in frame with MBP; linker and any vector tag are not described; Made by in vitro coupled transcription/translation; also called NBP-NOXO1(288-370)
